Residue numbers refer to the chain shown, from its start.
B1: G001_gp1_V08_VRC01c_142 (antibody, V domains shown)
VH: QVQLVQSGAEVKKPGASVKVSCKASGYTFTGDYMHWVRQAPGQGLEWMGWINPNSGGTNYAQKFQGWVTMTRDTSISTAYMEVRLRSDDTAVYYCARAGYSSSWGFGFWGQGTLVTVSS
VL: QSVLTQPPSVSGAPGERVTISCTGSSSNIGAGYDVHWYQQLPGTAPKLLIFGTSNRPSGVPDRFSGSKSGTSASLAITGLQAEDEADYYCQSYEFFGGGTKLTVL
B2: G001_gp1_V08_VRC01c_143 (antibody, V domains shown)
VH: QVQLVQSGAEVRKPGASVKVSCKASGFTFSDYYIHWVRQAPGQGLEWMGWINPNSGGTNYARKFQGRVTMTRDRSISTAYMELSRLRSDDTAVYYCARGLHTSGWYFAFWGQGTLVTVSS
VL: DIQMTQSPSSLSASVGDRVTITCQARQDTSNYLHWYQQKPGKAPKLLIYDASKLEPGVPSRFSGSGSGTDFTFTISNLQPEDIGTYYCQQYEAFGGGTKVEIK
B3: G001_gp1_V08_VRC01c_134 (antibody, V domains shown)
VH: QVQLVQSGAEVKKPGASVKVSCKASGYTFTDYYMHWVRQAPGQGLEWMGWINPNSGGTNYAQKFQGWVTMTRDTSISTAYMELSRLTSDDTAVYYCATSIKATNYNWNFDLWGRGTLVTVSS
VL: EIVLTQSPGTLSLSPGERATLSCRASQSVTSNLAWYQQKPGQAPRLLIYGASSRATGIPDRFSGSGSGTDFTLTISRLEPEDFAVYYCQQYESFGQGTKLEIK
B4: G001_gp1_V08_VRC01c_131 (antibody, V domains shown)
VH: QVQLVQSGAEVKKPGASVKVSCKASGYTFTDYYIYWLRQAPGHGLEWMGWINPNSGGTNYAQKFQDWVTMTRDTSISTAYMELSRLSSDDTAVYYCARRNDYLGGSYRYSAFDIWGQGTMVTVSS
VL: EIVLTQSPGTLSLSPGERATLSCRASQKVSSRYLAWYQQKPGQAPRLLIYGASSRATGIPDRFSGSGSGTDFTLTISRLEPEDFAVYYCQQYETFGQGTKLEIK
B5: G001_gp1_V08_VRC01c_133 (antibody, V domains shown)
VH: QVQLVQSGAEVKKPGASVKVSCKASGYTFTDYYLHWVRQAPGQGLEWMGWINPNSGGTNYARKFQDWVTMTRDTSISTAYMELSRLRSDDTAVYYCARGKTTVSWYFEYWAQGTLVTVSS
VL: B4 VL with K28S, R32S, F84S, L101V
B6: G001_gp1_V08_VRC01c_139 (antibody, V domains shown)
VH: QVQLVQSGAEVKKPGASVKVSCKASGYTFTGSYMHWVRQAPGQGLEWMGWINPNSGGTNYAQKFQGRVTLTRDTSISTAYMELTRLRSDDTTVFYCATSRSGDWYFDLWGRGTLVTVSS
VL: B4 VL with K28S, V29A, R32S, V86M
B7: G001_gp1_V08_VRC01c_145 (antibody, V domains shown)
VH: QVQLVQSGAEVKKPGASVKVSCRASGYTFTAYYIHWVRQAPGQGLEWMGWINPNSGGTNYAQKFQGRVTMTRDTSISTAYMELRRLRSDDTAVYYCARRFVSSGYYYAYWGQGTLVTVSS
VL: B4 VL with K28S, R32S, I49F, V86I, Q91H, L101V
B8: G001_gp1_V08_VRC01c_138 (antibody, V domains shown)
VH: QVQLVQSGAEVKKPGASVKVSCKASGYTFTDYYMYWVRQAPGQGLEWMGWINPNSGGTNYAQKFQGRVTMTRDTSISTAYMELSGLRSDDTAVYYCARRPNPYSGYDSNAFDIWGQGTMVTVSS
VL: DIQMTQSPSTLSASVGDRVTITCRASQSISSWLAWYQQKPGKAPKLLIYKASSLESGVPSRFSGSGSGTEFTLTISSLQPDDSATYYCQQYETFGQGTKVEIK
B9: G001_gp1_V08_VRC01c_140 (antibody, V domains shown)
VH: QVQLVQSGAEVKMPGTSVKVSCKASGYTFTDYYMHWVRQAPGQGLEWMGWINPNSGGTNYEQRFQGRVTMTRDTSISTAYMDLRRLRSDDTAVYYCATSLVETSTHWAFDLWGQGTMVTVSS
VL: B8 VL with I2F, A25T, I29F, S31T, K50E, E55Q, S83L, E101A
B10: G001_gp1_V08_VRC01c_146 (antibody, V domains shown)
VH: B8 VH with S77T, L83V, S84R, G85R, V93M, S108F
VL: B8 VL with S31N, A51T, S53N, S56G, S83L, T93M
B11: G001_gp1_V08_VRC01c_141 (antibody, V domains shown)
VH: QVQLVQSGAEVKKPGASVKVSCKASGYSFTDYYMHWVRQAPGQGLEWMGWINPNSGGSNYAQKFQGRVTMTRDSFISTAYMELSRLRSDDTAVYYCAYYDSGTYRYWGQGTLVTVSS
VL: B8 VL with Y36F, S83F
B12: G001_gp1_V08_VRC01c_136 (antibody, V domains shown)
VH: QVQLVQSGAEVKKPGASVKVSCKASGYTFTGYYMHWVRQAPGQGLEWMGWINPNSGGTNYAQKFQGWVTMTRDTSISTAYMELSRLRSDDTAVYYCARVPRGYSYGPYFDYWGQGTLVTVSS
VL: EIVMTQSPATLSVSPGERATLSCRASQSVSSNLAWYQQKPGQAPRLLIYGASTRATGIPARFSGSGSGTEFTLTISSLQSEDFAVYYCQQYSTFGGGTKVEIK
B13: G001_gp1_V08_VRC01c_132 (antibody, V domains shown)
VH: QVQLVQSGAEVKKPGASVKVSCKASGYTFSGYYMHWVRQAPGQGLEWMGWINPNSGGTNYAQKFQGWVTMTRDTSISTAYMELSRLKSDDTAVYYCARVEHTSGWCFDSWGQGTLVTVSS
VL: DIQMTQSPSSLSASVGDRVTITCQASQDISNYLNWYQQKPGKAPKLLISDASNLETGVPSRFSGSGSGTDFTFTISSLQPEDIATYYCQQYDIFGPGTKVEIK
B14: G001_gp1_V08_VRC01c_147 (antibody, V domains shown)
VH: QVQLVQSGAEVKQPGASVKVSCKASGYTFTGYYIHWIRQAPGQGLEWMGWINPKSGGTNYARNFQGRVTMTRDTSISTSYLLLSRLRSDDTAVYYCFRGAEGWLLKYWGQGTLVTVSS
VL: B13 VL with S49Y, Y87F, Q90H, D92E, I93F, E101D
B15: G001_gp1_V08_VRC01c_135 (antibody, V domains shown)
VH: QVQLVQSGAEVKKPGASVKVSCKASGYIFTGYYMHWVRQAPGQGLEWMGWINPNSGGTNYAQKFQGWVTMTRDTSISTAYMELSRLRSDDTAVYYCASSVGVPAARGWAFDMWGQGTMVTVSS
VL: B13 VL with S49Y, N53D, I93L, E101D
B16: G001_gp1_V08_VRC01c_144 (antibody, V domains shown)
VH: QVQLVQSGAEVKKPGASVKVSCKASGYTFSGHYMHWVRQAPGQGLEWMGWINPNSGGTNYAQKFQGRVTMTRDTSISSAYMELSRLRSDDTAVYYCATHTGSGSSWSFDSWGQGTLVTVSS
VL: B13 VL with S49Y, D92E, I93Y, P96Q, K99R, V100L

Each binder was assayed against eOD-GT8 (engineered outer domain germline-targeting version 8), monomer (HIV-1 gp120 engineered outer domain, …).

| Binder | binding result |
| --- | --- |
| B1 | binds |
| B2 | binds |
| B3 | binds |
| B4 | binds |
| B5 | binds |
| B6 | binds |
| B7 | binds |
| B8 | binds |
| B9 | binds |
| B10 | binds |
| B11 | binds |
| B12 | binds |
| B13 | binds |
| B14 | binds |
| B15 | binds |
| B16 | binds |
